Source: EP4789680A1, “NOVEL PACE4 INHIBITOR AND USE THEREOF IN ANTI-OSTEOARTHRITIS” (Inflamax Pharmaceuticals Limited, priority 2023, dated 2025)
*1 amine or outer side, *2 acyl side, *3 side chain or, on linkers, in order; H or OH if unused. Where no end group is shown, it is not given here. [ ]: non-standard residue; d: D form. Ala(piperidin-4-yl) = O=C([C@H](CC1CCN([*:3])CC1)N[*:1])[*:2]; Phe(4-guanidino) = N=C(N)Nc1ccc(C[C@H](N)C(=O)O)cc1; Phe(4-CF3) = N[C@@H](Cc1ccc(C(F)(F)F)cc1)C(=O)O

T1: PACE4 (UniProt P29122 150-969, limits assumed)
T1 sequence (looked up): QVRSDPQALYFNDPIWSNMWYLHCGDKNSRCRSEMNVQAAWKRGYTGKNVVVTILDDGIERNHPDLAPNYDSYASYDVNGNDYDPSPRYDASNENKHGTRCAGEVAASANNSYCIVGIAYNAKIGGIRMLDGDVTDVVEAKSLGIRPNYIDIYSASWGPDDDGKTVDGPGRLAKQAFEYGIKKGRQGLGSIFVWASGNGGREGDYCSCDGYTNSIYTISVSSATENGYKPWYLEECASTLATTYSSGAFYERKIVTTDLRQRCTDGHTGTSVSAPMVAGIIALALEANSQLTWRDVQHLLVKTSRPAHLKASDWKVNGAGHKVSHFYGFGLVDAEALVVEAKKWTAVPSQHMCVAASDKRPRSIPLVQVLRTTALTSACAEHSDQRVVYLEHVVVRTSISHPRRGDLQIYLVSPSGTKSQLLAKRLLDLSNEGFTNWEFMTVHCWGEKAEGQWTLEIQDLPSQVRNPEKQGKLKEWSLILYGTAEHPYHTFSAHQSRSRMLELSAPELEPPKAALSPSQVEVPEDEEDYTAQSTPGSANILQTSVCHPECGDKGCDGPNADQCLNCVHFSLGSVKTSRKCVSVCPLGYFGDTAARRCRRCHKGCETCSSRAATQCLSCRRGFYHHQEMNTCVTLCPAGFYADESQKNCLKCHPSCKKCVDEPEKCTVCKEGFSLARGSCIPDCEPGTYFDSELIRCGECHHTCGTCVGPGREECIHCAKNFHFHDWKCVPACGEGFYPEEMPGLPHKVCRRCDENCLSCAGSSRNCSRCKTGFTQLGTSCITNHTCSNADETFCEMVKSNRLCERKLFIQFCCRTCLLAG


Target: T1, PACE4
Assay: cell-based or functional assay

Row | Binder | IC50 (µM), PACE4 enzyme inhibition, fluorogenic substrate pyroGlu-Arg-Val-Lys-Arg-methyl-coumaryl-7-amide [µM]
1 | Ac-RFKR-NH2 [Ac-R-F-K-R-NH2] | 12.7
2 | P[dR]R[Ala(piperidin-4-yl)]KR[dT]-NH2 (N-terminus assumed; SMILES C[C@H](O)[C@@H](NC(=O)[C@H](CCCNC(=N)N)NC(=O)[C@H](CCCCN)NC(=O)[C@H](CC1CCNCC1)NC(=O)[C@H](CCCNC(=N)N)NC(=O)[C@@H](CCCNC(=N)N)NC(=O)[C@@H]1CCCN1)C(N)=O) [P-dR-R-A(4-Pip)-K-R-dT-NH2] | 0.07
3 | P[dR]R[Phe(4-guanidino)]KR[dT]-NH2 (N-terminus assumed; SMILES C[C@H](O)[C@@H](NC(=O)[C@H](CCCNC(=N)N)NC(=O)[C@H](CCCCN)NC(=O)[C@H](Cc1ccc(NC(=N)N)cc1)NC(=O)[C@H](CCCNC(=N)N)NC(=O)[C@@H](CCCNC(=N)N)NC(=O)[C@@H]1CCCN1)C(N)=O) [P-dR-R-F(4-Guan)-K-R-dT-NH2] | 0.025
4 | Ac-[dR]R[Phe(4-CF3)]KR[dT]-NH2 (SMILES CC(=O)N[C@H](CCCNC(=N)N)C(=O)N[C@@H](CCCNC(=N)N)C(=O)N[C@@H](Cc1ccc(C(F)(F)F)cc1)C(=O)N[C@@H](CCCCN)C(=O)N[C@@H](CCCNC(=N)N)C(=O)N[C@@H](C(N)=O)[C@H](C)O) [Ac-dR-R-F(4-CF3)-K-R-dT-NH2] | 0.04
5 | Ac-RR[Phe(4-CF3)]KR[dT]-NH2 (SMILES CC(=O)N[C@@H](CCCNC(=N)N)C(=O)N[C@@H](CCCNC(=N)N)C(=O)N[C@@H](Cc1ccc(C(F)(F)F)cc1)C(=O)N[C@@H](CCCCN)C(=O)N[C@@H](CCCNC(=N)N)C(=O)N[C@@H](C(N)=O)[C@H](C)O) [Ac-R-R-F(4-CF3)-K-R-dT-NH2] | 0.09
6 | Ac-R[Phe(4-guanidino)]KR[dT]-NH2 (SMILES CC(=O)N[C@@H](CCCNC(=N)N)C(=O)N[C@@H](Cc1ccc(NC(=N)N)cc1)C(=O)N[C@@H](CCCCN)C(=O)N[C@@H](CCCNC(=N)N)C(=O)N[C@@H](C(N)=O)[C@H](C)O) [Ac-R-F(4-Guan)-K-R-dT-NH2] | 0.021
7 | Ac-RR[Phe(4-guanidino)]KR[dT]-NH2 (SMILES CC(=O)N[C@@H](CCCNC(=N)N)C(=O)N[C@@H](CCCNC(=N)N)C(=O)N[C@@H](Cc1ccc(NC(=N)N)cc1)C(=O)N[C@@H](CCCCN)C(=O)N[C@@H](CCCNC(=N)N)C(=O)N[C@@H](C(N)=O)[C@H](C)O) [Ac-R-R-F(4-Guan)-K-R-dT-NH2] | 0.018
8 | Ac-[dR]RFKR[dT]-NH2 (SMILES CC(=O)N[C@H](CCCNC(=N)N)C(=O)N[C@@H](CCCNC(=N)N)C(=O)N[C@@H](Cc1ccccc1)C(=O)N[C@@H](CCCCN)C(=O)N[C@@H](CCCNC(=N)N)C(=O)N[C@@H](C(N)=O)[C@H](C)O) [Ac-dR-R-F-K-R-dT-NH2] | 0.19
9 | Ac-R[Ala(piperidin-4-yl)]KR[dT]-NH2 (SMILES CC(=O)N[C@@H](CCCNC(=N)N)C(=O)N[C@@H](CC1CCNCC1)C(=O)N[C@@H](CCCCN)C(=O)N[C@@H](CCCNC(=N)N)C(=O)N[C@@H](C(N)=O)[C@H](C)O) [Ac-R-A(4-Pip)-K-R-dT-NH2] | 0.1
10 | Ac-RR[Ala(piperidin-4-yl)]KR[dT]-NH2 (SMILES CC(=O)N[C@@H](CCCNC(=N)N)C(=O)N[C@@H](CCCNC(=N)N)C(=O)N[C@@H](CC1CCNCC1)C(=O)N[C@@H](CCCCN)C(=O)N[C@@H](CCCNC(=N)N)C(=O)N[C@@H](C(N)=O)[C@H](C)O) [Ac-R-R-A(4-Pip)-K-R-dT-NH2] | 0.09
11 | P[dR]R[Phe(4-CF3)]KR[dT]-NH2 (N-terminus assumed; SMILES C[C@H](O)[C@@H](NC(=O)[C@H](CCCNC(=N)N)NC(=O)[C@H](CCCCN)NC(=O)[C@H](Cc1ccc(C(F)(F)F)cc1)NC(=O)[C@H](CCCNC(=N)N)NC(=O)[C@@H](CCCNC(=N)N)NC(=O)[C@@H]1CCCN1)C(N)=O) [P-dR-R-F(4-CF3)-K-R-dT-NH2] | 0.02
12 | Ac-[dR]R[Phe(4-guanidino)]KR[dT]-NH2 (SMILES CC(=O)N[C@H](CCCNC(=N)N)C(=O)N[C@@H](CCCNC(=N)N)C(=O)N[C@@H](Cc1ccc(NC(=N)N)cc1)C(=O)N[C@@H](CCCCN)C(=O)N[C@@H](CCCNC(=N)N)C(=O)N[C@@H](C(N)=O)[C@H](C)O) [Ac-dR-R-F(4-Guan)-K-R-dT-NH2] | 0.015
13 | [dP][dR]R[Phe(4-guanidino)]KR[dT]-NH2 (N-terminus assumed; SMILES C[C@H](O)[C@@H](NC(=O)[C@H](CCCNC(=N)N)NC(=O)[C@H](CCCCN)NC(=O)[C@H](Cc1ccc(NC(=N)N)cc1)NC(=O)[C@H](CCCNC(=N)N)NC(=O)[C@@H](CCCNC(=N)N)NC(=O)[C@H]1CCCN1)C(N)=O) [dP-dR-R-F(4-Guan)-K-R-dT-NH2] | 0.034
14 | Ac-[dR]R[Ala(piperidin-4-yl)]KR[dT]-NH2 (SMILES CC(=O)N[C@H](CCCNC(=N)N)C(=O)N[C@@H](CCCNC(=N)N)C(=O)N[C@@H](CC1CCNCC1)C(=O)N[C@@H](CCCCN)C(=O)N[C@@H](CCCNC(=N)N)C(=O)N[C@@H](C(N)=O)[C@H](C)O) [Ac-dR-R-A(4-Pip)-K-R-dT-NH2] | 0.12
15 | Ac-RFKR[dT]-NH2 (SMILES CC(=O)N[C@@H](CCCNC(=N)N)C(=O)N[C@@H](Cc1ccccc1)C(=O)N[C@@H](CCCCN)C(=O)N[C@@H](CCCNC(=N)N)C(=O)N[C@@H](C(N)=O)[C@H](C)O) [Ac-R-F-K-R-dT-NH2] | 5
16 | [dP][dR]R[Ala(piperidin-4-yl)]KR[dT]-NH2 (N-terminus assumed; SMILES C[C@H](O)[C@@H](NC(=O)[C@H](CCCNC(=N)N)NC(=O)[C@H](CCCCN)NC(=O)[C@H](CC1CCNCC1)NC(=O)[C@H](CCCNC(=N)N)NC(=O)[C@@H](CCCNC(=N)N)NC(=O)[C@H]1CCCN1)C(N)=O) [dP-dR-R-A(4-Pip)-K-R-dT-NH2] | 0.08
17 | Ac-R[Phe(4-guanidino)]KRT-NH2 (SMILES CC(=O)N[C@@H](CCCNC(=N)N)C(=O)N[C@@H](Cc1ccc(NC(=N)N)cc1)C(=O)N[C@@H](CCCCN)C(=O)N[C@@H](CCCNC(=N)N)C(=O)N[C@H](C(N)=O)[C@@H](C)O) [Ac-R-F(4-Guan)-K-R-T-NH2] | 0.023
18 | Ac-RRFKR[dT]-NH2 (SMILES CC(=O)N[C@@H](CCCNC(=N)N)C(=O)N[C@@H](CCCNC(=N)N)C(=O)N[C@@H](Cc1ccccc1)C(=O)N[C@@H](CCCCN)C(=O)N[C@@H](CCCNC(=N)N)C(=O)N[C@@H](C(N)=O)[C@H](C)O) [Ac-R-R-F-K-R-dT-NH2] | 0.46
19 | Ac-R[Ala(piperidin-4-yl)]KRT-NH2 (SMILES CC(=O)N[C@@H](CCCNC(=N)N)C(=O)N[C@@H](CC1CCNCC1)C(=O)N[C@@H](CCCCN)C(=O)N[C@@H](CCCNC(=N)N)C(=O)N[C@H](C(N)=O)[C@@H](C)O) [Ac-R-A(4-Pip)-K-R-T-NH2] | 0.3
20 | Ac-RFKRT-NH2 [Ac-R-F-K-R-T-NH2] | 2
21 | [dP][dR]R[Phe(4-CF3)]KR[dT]-NH2 (N-terminus assumed; SMILES C[C@H](O)[C@@H](NC(=O)[C@H](CCCNC(=N)N)NC(=O)[C@H](CCCCN)NC(=O)[C@H](Cc1ccc(C(F)(F)F)cc1)NC(=O)[C@H](CCCNC(=N)N)NC(=O)[C@@H](CCCNC(=N)N)NC(=O)[C@H]1CCCN1)C(N)=O) [dP-dR-R-F(4-CF3)-K-R-dT-NH2] | 0.02
